The target of one assay is HLA-C*06:02. Nature of the assay: IEDB peptide-MHC binding, purified MHC/direct/fluorescence; filed as Kd, often an IC50 or EC50 that approximates it; ≥ and ≤ were set here for values at or beyond the usual limits of such assays.
Assay [1] concerns the target HLA-B*39:01. Nature of the assay: IEDB peptide-MHC binding, purified MHC/competitive/fluorescence; filed as Kd, often an IC50 or EC50 that approximates it; ≥ and ≤ were set here for values at or beyond the usual limits of such assays. As to conditions: source organism: Bacillus anthracis str. A0488.
The target of the next assay is HLA-A*24:02. Nature of the assay: IEDB peptide-MHC binding, purified MHC/direct/fluorescence; filed as Kd, often an IC50 or EC50 that approximates it; ≥ and ≤ were set here for values at or beyond the usual limits of such assays.
In a further assay the target is HLA-B*40:01. The assay is described as above.
In a further assay the target is HLA-C*14:02. The description is as above.
In assay [2] the target is HLA-B*07:02. The description is as above.
Assay [3] deals with HLA-B*35:01. The assay is described as above.
The next assay deals with HLA-A*24:03. The description is as above. As to conditions: source organism: Pseudomonas sp. KIE171.
Another assay addresses HLA-A*02:12. The experiment in a line: IEDB peptide-MHC binding, purified MHC/competitive/fluorescence; filed as Kd, often an IC50 or EC50 that approximates it; ≥ and ≤ were set here for values at or beyond the usual limits of such assays. To be noted: source organism: Entamoeba histolytica HM-1:IMSS.
In assay [4] the target is HLA-A*02:01. The experiment in a line: IEDB peptide-MHC binding, purified MHC/competitive/radioactivity; ≥ and ≤ were set here for values at or beyond the usual limits of such assays.
The target of a further assay is HLA-A*68:01. Nature of the assay: IEDB peptide-MHC binding, purified MHC/competitive/radioactivity; filed as Kd, often an IC50 or EC50 that approximates it; ≥ and ≤ were set here for values at or beyond the usual limits of such assays. As to conditions: source organism: Vaccinia virus WR.
For assay [5], the target named is HLA-B*51:01. The description is as above. To be noted: source organism: Vaccinia virus WR.
The target in assay [6] is HLA-A*03:01. The assay is described as above. As to conditions: source organism: Vaccinia virus WR.
Assay [7] concerns the target HLA-B*07:02. Described as above. As to conditions: source organism: Vaccinia virus WR.
The target in the next assay is HLA-B*54:01. The assay is described as above. As to conditions: source organism: Vaccinia virus WR.
The target in assay [8] is HLA-A*11:01. The description is as above. As to conditions: source organism: Vaccinia virus WR.
Assay [9] has as its target HLA-B*35:01. The assay is described as above. As to conditions: source organism: Vaccinia virus WR.
The next assay deals with HLA-B*53:01. The assay is described as above. As to conditions: source organism: Vaccinia virus WR.
The target in a further assay is HLA-A*33:01. Described as above. As to conditions: source organism: Vaccinia virus WR.
In assay [10] the target is HLA-A*31:01. The assay is described as above. As to conditions: source organism: Vaccinia virus WR.
Assay [11] concerns the target HLA-A*02:01. The experiment in a line: IEDB peptide-MHC binding, purified MHC/competitive/fluorescence; filed as Kd, often an IC50 or EC50 that approximates it; ≥ and ≤ were set here for values at or beyond the usual limits of such assays. As to conditions: source organism: Vaccinia virus GLV-1h68.
Another assay concerns the target HLA-A*26:01. Nature of the assay: IEDB peptide-MHC binding, purified MHC/direct/fluorescence; filed as Kd, often an IC50 or EC50 that approximates it; ≥ and ≤ were set here for values at or beyond the usual limits of such assays. To be noted: source organism: Vibrio parahaemolyticus.
The next assay concerns the target HLA-B*08:01. The assay is described as above. As to conditions: source organism: Vibrio parahaemolyticus.
In another assay the target is HLA-B*15:01. The description is as above. As to conditions: source organism: Vibrio parahaemolyticus.
Assay [12] concerns the target HLA-A*03:01. The description is as above. As to conditions: source organism: Vibrio parahaemolyticus.
For a further assay, the target named is HLA-B*58:01. The description is as above. To be noted: source organism: Vibrio parahaemolyticus.
For assay [13], the target named is HLA-A*02:01. Described as above.
The target in assay [14] is HLA-A*11:01. The description is as above. As to conditions: source organism: Vibrio parahaemolyticus.
For a further assay, the target named is HLA-B*27:05. Described as above.
For assay [15], the target named is HLA-B*39:01. The assay is described as above. As to conditions: source organism: Vibrio parahaemolyticus AQ3810.
For a further assay, the target named is HLA-B*44:02. Described as above. As to conditions: source organism: Vibrio parahaemolyticus.
A further assay deals with HLA-A*69:01. The description is as above.
Assay [16] addresses HLA-A*01:01. The assay is described as above. As to conditions: source organism: Vibrio parahaemolyticus.
For assay [17], the target named is HLA-A*31:01. The assay is described as above.
For a further assay, the target named is HLA-C*05:01. Described as above. To be noted: source organism: Salmonella enterica subsp. enterica serovar Typhi str. CT18.
Assay [18] has as its target HLA-B*51:01. Nature of the assay: IEDB peptide-MHC binding, purified MHC/competitive/fluorescence; filed as Kd, often an IC50 or EC50 that approximates it; ≥ and ≤ were set here for values at or beyond the usual limits of such assays. As to conditions: source organism: Salmonella enterica subsp. enterica serovar Typhi.
In assay [19] the target is HLA-B*07:02. Described as above. As to conditions: source organism: Salmonella enterica subsp. enterica serovar Typhi.
Assay [20] concerns the target HLA-A*11:01. Described as above. As to conditions: source organism: Influenza A virus (A/goose/Hong Kong/739.2/2002(H5N1)).
The target in the next assay is HLA-A*29:02. Described as above. As to conditions: source organism: Homo sapiens.
The target of assay [21] is HLA-A*01:01. The description is as above. As to conditions: source organism: Homo sapiens.
Where [22] appears, read: source organism: Mycobacterium tuberculosis H37Ra.
The mark [23] stands for this setting: source organism: Pseudomonas sp. KIE171.
Setting [24] is: source organism: Vibrio parahaemolyticus.
Where [25] appears, read: source organism: Camelpox virus M-96.

A value given as a limit tells only on which side of the number the result lay.

As to LRHSTAHLL, the figures for the Kd in the assay with HLA-C*06:02 (source organism: Bacillus anthracis str. A0488) and with HLA-B*39:01 [1] were 13 nM and 71.3 nM, respectively.

For KFITHPFLW, the Kd with HLA-A*24:02 (source organism: Entamoeba histolytica HM-1:IMSS) was ≤ 1 nM.

With AEAASATPL, the figures for the Kd with HLA-B*40:01 (source organism: Mycobacterium tuberculosis) and with HLA-C*14:02 (setting [22]) were 21.9 nM and ≥ 20000 nM, respectively.

As to VPWQEKTAS, the dissociation constant (Kd) was 5810 nM with HLA-B*07:02 [2] (setting [23]), 3.28 nM with HLA-B*35:01 [3] (setting [23]) and 10500 nM with HLA-A*24:03.

The sequence NQNDNEETV yielded a Kd with HLA-A*02:12 of 40.4 nM.

For LNTSAGFPYV, in the assay with HLA-A*02:01 [4] (source organism: Rhinovirus C), the IC50 is 500 nM.

Turning to LMYDIINSV, the Kd in the assay with HLA-A*68:01 is ≥ 77700 nM; with HLA-B*51:01 [5], ≥ 54500 nM; with HLA-A*03:01 [6] it was ≥ 35100 nM; with HLA-B*07:02 [7], ≥ 77500 nM; in the assay with HLA-B*54:01, 258 nM; in the assay with HLA-A*11:01 [8], 1300 nM. Also, the Kd is ≥ 77400 nM in the assay with HLA-B*35:01 [9]; ≥ 78200 nM with HLA-B*53:01; ≥ 20300 nM with HLA-A*33:01; 4520 nM with HLA-A*31:01 [10]; 4440 nM with HLA-C*06:02 (source organism: Vaccinia virus GLV-1h68); 0.6 nM in the assay with HLA-A*02:01 [11].

For the sequence ALDGGNKHFL, the half-maximal inhibitory concentration (IC50) in the assay with HLA-A*02:01 [4] (source organism: Homo sapiens) worked out at 41.7 nM.

TFAWASFLW showed a dissociation constant (Kd) in the assay with HLA-A*24:02 (source organism: Yersinia pestis CA88-4125) of 3 nM.

Take GLLGSPVRA: the IC50 with HLA-A*02:01 [4] (source organism: Homo sapiens) amounted to 219 nM.

For the sequence GLIDIAPHQI, the half-maximal inhibitory concentration (IC50) with HLA-A*02:01 [4] (setting [22]) was determined as 49 nM.

As for NSDPEFNVL, the equilibrium dissociation constant (Kd) with HLA-A*26:01, with HLA-B*08:01, with HLA-B*15:01, in the assay with HLA-A*03:01 [12], in the assay with HLA-B*07:02 [2] (setting [24]) and in the assay with HLA-B*58:01 was ≥ 20000 nM in each case. Moreover, the Kd in the assay with HLA-A*02:01 [13] (setting [24]) was ≥ 20000 nM; with HLA-A*11:01 [14], ≥ 20000 nM; with HLA-B*27:05 (setting [24]), ≥ 20000 nM; with HLA-B*40:01 (setting [24]) it was 5060 nM; with HLA-B*35:01 [3] (setting [24]), 208 nM; in the assay with HLA-B*39:01 [15] it was 13 nM. Further, the equilibrium dissociation constant (Kd) in the assay with HLA-B*44:02 is ≥ 20000 nM; with HLA-A*69:01 (setting [24]), ≥ 20000 nM; with HLA-A*01:01 [16], 387 nM; with HLA-A*31:01 [17] (setting [24]), ≥ 20000 nM.

FPPGTSLTI: the Kd is ≥ 20000 nM with HLA-C*05:01, 564 nM with HLA-B*51:01 [18] and 187 nM in the assay with HLA-B*07:02 [19].

Regarding ASYKIFRIEK, the Kd in the assay with HLA-A*11:01 [20] came to 0.9 nM.

As to IYPEWYFLW, in the assay with HLA-A*24:02 (source organism: Campylobacter jejuni subsp. jejuni 81116), the Kd is ≤ 1 nM.

For the sequence YLMPYSVYI, the Kd with HLA-C*06:02 (source organism: Variola virus) was 7 nM; with HLA-A*02:01 [13] (setting [25]), ≤ 1 nM; with HLA-A*69:01 (setting [25]), ≤ 1 nM.

Take RYFSVTRPL: the dissociation constant (Kd) is ≥ 27600 nM with HLA-B*07:02 [2] (source organism: Homo sapiens), 10600 nM with HLA-B*27:05 (source organism: Homo sapiens), ≤ 1 nM in the assay with HLA-C*14:02 (source organism: Anopheles gambiae str. PEST) and 512 nM with HLA-A*31:01 [17] (source organism: Homo sapiens).

In the case of VLSEWLPVT, the 50% inhibitory concentration (IC50) with HLA-A*02:01 [4] (source organism: Rift Valley fever virus) is 15 nM.

On to SVDGFRASY, for which the values for the Kd with HLA-A*29:02 and in the assay with HLA-A*01:01 [21] were 1.3 nM and 7.1 nM, respectively.

The record behind these values is the Immune Epitope Database (IEDB).
